The nature of series [1]: Temperature optimum of enzyme activity. In kind it is biochemical.
The nature of series [2]: Temperature stability of the alcohol dehydrogenase (30 min at temperature, measured at 30° C.). Format: physicochemical. On the procedure:
The temperature stability in the range of 25 to 70° C. was determined in an analogous manner to that described under A. The homogeneous enzyme solution was subjected for 30 min to the recited temperatures and subsequently measured directly at 30° C. with the above test mixture. […] In contrast the ADH from L. kefir is only stable up to 40° C. with a maximum at 37° C., afterwards the activity decreases rapidly. The maximum for this enzyme is at 37° C.

The target of series [3] is T1, alcohol dehydrogenase from L. brevis (Levilactobacillus brevis, UniProt Q84EX5).
T1 sequence (Q84EX5 2-252): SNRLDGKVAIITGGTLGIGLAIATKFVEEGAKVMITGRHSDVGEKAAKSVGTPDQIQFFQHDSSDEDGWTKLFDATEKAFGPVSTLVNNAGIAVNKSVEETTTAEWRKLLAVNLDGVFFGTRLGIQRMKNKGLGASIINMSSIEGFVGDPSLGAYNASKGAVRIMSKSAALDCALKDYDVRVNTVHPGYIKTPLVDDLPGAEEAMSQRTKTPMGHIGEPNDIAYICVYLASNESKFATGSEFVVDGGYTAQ
The series is described as follows: biochemical. In kind it is biochemical. The settings on record: for Activity: 0.19 mM NADPH, pH 7.0, purified enzyme diluted 1:10. On the procedure: A series of other ketones and keto esters were used instead of acetophenone and it was tested whether these can be reduced by enzyme catalysis.
The following test mixture was used for this:
970 μl triethanolamine buffer (50 mM; pH 7.0, containing 10 mM keto compound)
20 μl NADPH (0.19 mM in the test)
Some of the ketones were also tested at a concentration of 1 mM in order to verify a possible substrate inhibition at 10 mM.

A short description of series [4]: pH stability of the alcohol dehydrogenase (30 min incubation, then standard acetophenone test). In kind it is physicochemical. Conditions: for Activity: 30 min. On the procedure: The dependence of the activity of the enzyme when stored in buffers with various pH values was examined in the range of pH 4 to 11. Depending on the buffer capacity various buffers in the pH range of 4 to 11 were prepared and the homogeneous enzyme was incubated therein for 30 minutes. 1 μl thereof was removed and added to the normal test reagent mixture of 970 μl triethanolamine buffer (100 mM; pH 7.0 containing 11 mM acetophenone) and 20 μl NADPH (final concentration 0.19 mM). The reaction was monitored for 1 minute at 30° C. and 340 nm.

Series [5] can be described thus: Standard enzyme test of purified enzyme (acetophenone, NADPH). In kind it is biochemical. On the procedure:
The process for the isolation and purification of the ADH enzyme proceeds essentially via the following process steps: disruption of the cultured cells, such as by glass beads, carrying out hydrophobic chromatography or interaction chromatography and followed by subsequent anion exchange and affinity chromatography. In particular it has proven to be advantageous when all homogenization and elution buffers contain from about 0.5 to about 5 mM magnesium. In this connection a Mg^2+ concentration of about 1 mM has proven to be particularly advantageous. In this manner an enzyme is obtained which has a specific activity of at least 400 U/mg and in many cases up to 500 U/mg.
The enzyme was released from the cells by wet-grinding with the aid of glass beads (0.3 mm), but can also be achieved by any other method for disrupting bacterial cells. The bacterial mass is diluted to a 40% suspension with 0.1 M acetate buffer pH 4.0+1 mM MgCl2 supplemented with an antifoaming agent (polypropylene glycol). This was subjected to a 20 minute disruption while cooling continuously in a disintegrator (IMA Co.) at 4000 rpm with addition of glass beads in a ratio of 1:2. 8 g bacteria yielded 10 ml crude extract with a volume activity of 40 U/ml and a protein content of ca. 3 mg/ml. […]

Where [6] appears, read: relative to acetophenone = 100, 10 mM keto compound, read-out: Relative act.

Where two headings read alike, the source gives them in different places.

For “alcohol dehydrogenase from Lactobacillus kefir: NADP-dependent R-alcohol dehydrogenase from Lactobacillus kefir (DE 40 14 573 C1), comparison enzyme [reference compound]”, the “optimal test temperature (activity maximum)” value in series [1] came to 37 °C. The “act. (temperature optimum)” value was found to be 28.0 U/ml in series [1] (test temperature 20° C.); 28.2 U/ml in series [1] (test temperature 25° C.); 35.2 U/ml in series [1] (test temperature 30° C.); 36.2 U/ml in series [1] (test temperature 35° C.); 34.4 U/ml in series [1] (test temperature 40° C.); 35.4 U/ml in series [1] (test temperature 45° C.). Also, the “act. (temperature optimum)” value came to 26.0 U/ml in series [1] (test temperature 50° C.), 3.0 U/ml in series [1] (test temperature 55° C.) and 0 U/ml in series [1] (test temperature 60° C.). The “temperature at which the enzyme is inactivated by 50% (thermal deactivation)” value in series [2] stood at 45 °C. The “temperature of maximum stability” value in series [2] (30 min) was 37 °C. The “temperature range in which the enzyme is stable” value in series [2] (30 min) was “up to 40 °C”. For the same molecule, the “act. (temperature stability)” value in series [2] (30 min at 25° C.) is reported as 36.5 U/ml; in series [2] (30 min at 30° C.), 30.2 U/ml; in series [2] (30 min at 37° C.), 35.8 U/ml; in series [2] (30 min at 40° C.), 32 U/ml; in series [2] (30 min at 45° C.) it was 26.2 U/ml; in series [2] (30 min at 50° C.), 2.4 U/ml. Besides, the “act. (temperature stability)” value in series [2] (30 min at 55° C.) was found to be 0 U/ml.
As to `CCOC(=O)CCCC(C)=O` [4-acetylbutyric acid ethyl ester], the Activity in series [3] (10 mM keto compound) worked out at 2.84 U/ml. In addition, the activity at 10000 µM in series [3] (setting [6]) stood at 87%.
The corresponding values for `CCOC(=O)CC1CCCCC1=O` (centres unmarked) [cyclohexanone-2-acetic acid ethyl ester] are 0.14 U/ml and 4%.
`CCOC(=O)C(F)(F)F` [trifluoroacetic acid ethyl ester] had an Activity in series [3] (10 mM keto compound) of 0.50 U/ml. For the same molecule, the activity at 10000 µM in series [3] (read-out: Relative act.) was determined as 15%.
For the molecule `CC(=O)CCc1ccccc1` [benzylacetone], the Activity in series [3] (10 mM keto compound) was determined as 3.24 U/ml. Further, the activity at 10000 µM in series [3] (read-out: Relative act., relative to acetophenone = 100, 10 mM keto compound) was determined as 99%.
In turn, `CCOC(=O)CC(=O)c1ccccc1` [benzoyl acetic acid ethyl ester] yielded an Activity in series [3] (10 mM keto compound) of 1.14 U/ml. Further, in series [3] (setting [6]), the activity at 10000 µM worked out at 35%.
The molecule `CCC(=O)c1ccccc1` [propiophenone] showed an Activity in series [3] (10 mM keto compound) of 0.55 U/ml. The activity at 10000 µM in series [3] (read-out: Relative act.) was 17%.
In series [3] (10 mM keto compound), `C(CCOCC1CO1)COCC1CO1` (centres unmarked) [1,4-butanediol-diglyceridyl ether] showed an Activity of 0.77 U/ml. In addition, the activity at 10000 µM in series [3] (read-out: Relative act.) is 24%.
In series [3] (10 mM keto compound), `CCOC(=O)C(C)=O` [ethyl pyruvate] displayed an Activity of 8.10 U/ml. Besides, in series [3] (setting [6]), the activity at 10000 µM was determined as 248%.
In the case of `CC(=O)CO` [hydroxyacetone], the Activity in series [3] (10 mM keto compound) is listed as 0.74 U/ml. Moreover, the activity at 10000 µM in series [3] (setting [6]) came to 23%.

B1: alcohol dehydrogenase from Lactobacillus brevis: stable R-specific NADP-dependent alcohol dehydrogenase purified to homogeneity from Lactobacillus brevis DSM 20054 (protein)
chain: MSNRLDGKVAIITGGTLGIGLAIATKFVEEGAKVMITGRHSDVGEKAAKSVGTPDQIQFFQHDSSDEDGWTKLFDATEKAFGPVSTLVNNAGIAVNKSVEETTTAEWRKLLAVNLDGVFFGTRLGIQRMKNKGLGASIINMSSIEGFVGDPSLGAYNASKGAVRIMSKSAALDCALKDYDVRVNTVHPGYIKTPLVDDLPGAEEAMSQRTKTPMGHIAEPNDIAYICVYLASNESKFATGSEFVVDGGYTAQ
On to B1, for which the “optimal test temperature (activity maximum)” value in series [1] was 50 °C; in series [1] (listed as enzyme according to the invention), “ca. 50 °C”. The “act. (temperature optimum)” value turned out to be 10.31 U/ml in series [1] (test temperature 25° C.); 9.66 U/ml in series [1] (test temperature 30° C.); 9.76 U/ml in series [1] (test temperature 37° C.); 17.78 U/ml in series [1] (test temperature 40° C.); 16.93 U/ml in series [1] (test temperature 42° C.); 18.06 U/ml in series [1] (test temperature 45° C.). Also, the “act. (temperature optimum)” value was found to be 19.13 U/ml in series [1] (test temperature 47° C.); 31.46 U/ml in series [1] (test temperature 50° C.); 24.48 U/ml in series [1] (test temperature 55° C.); 23.69 U/ml in series [1] (test temperature 60° C.); 1.98 U/ml in series [1] (test temperature 65° C.); 0.58 U/ml in series [1] (test temperature 70° C.). Also, the Activity amounted to 6.86 U/ml in series [4] (pH 4.0, Na acetate/acetic acid); 6.22 U/ml in series [4] (pH 4.5, Na acetate/acetic acid); 7.04 U/ml in series [4] (pH 5.0, MES/NaOH); 8.73 U/ml in series [4] (pH 5.5, MES/MaOH); 5.58 U/ml in series [4] (pH 6.0, triethanolamine/NaOH); 5.80 U/ml in series [4] (pH 6.5, triethanolamine/NaOH). Also, the Activity was 6.57 U/ml in series [4] (pH 7.0, triethanolamine/NaOH); 5.04 U/ml in series [4] (pH 7.5, Tris/HCl); 3.83 U/ml in series [4] (pH 8.0, Tris/HCl); 8.42 U/ml in series [4] (pH 8.5, Tris/HCl); 17.11 U/ml in series [4] (pH 9.0, Tris/HCl); 1.25 U/ml in series [4] (pH 10.0, glycine/NaOH). The molecule also gave an Activity in series [4] (pH 11.0, glycine/NaOH) of 2.43 U/ml. In addition, the “pH value of maximum stability (larger maximum)” value was 9.0 in series [4] (pH 4 to 11, 30 min) and “about 9.0” in series [4] (pH 4 to 11, 30 min, listed as ADHs according to the invention). Besides, in series [4] (pH 4 to 11, 30 min), the “pH value of the smaller maximum of pH stability” value is on record as 5.5. For the same molecule, the “temperature at which the enzyme is inactivated by 50% (thermal deactivation)” value in series [2] was “about 65 °C”. Moreover, the retained activity entry in series [2] (50 mM MES buffer, about 30 minutes, between 25° C. and 60° C.) is given as “over 95%”. Besides, the “temperature of maximum stability” value is 40 °C in series [2] (30 min) and “ca. 40 °C” in series [2] (30 min, listed as enzyme according to the invention). The “act. (temperature stability)” value in series [2] (30 min at 25° C.) was found to be 9.43 U/ml; in series [2] (30 min at 30° C.), 8.74 U/ml; in series [2] (30 min at 37° C.), 12.06 U/ml; in series [2] (30 min at 40° C.), 12.15 U/ml; in series [2] (30 min at 42° C.) it was 11.16 U/ml; in series [2] (30 min at 45° C.), 10.81 U/ml. Besides, the “act. (temperature stability)” value in series [2] (30 min at 47° C.) is 8.23 U/ml; in series [2] (30 min at 50° C.), 8.37 U/ml; in series [2] (30 min at 60° C.) it was 8.51 U/ml; in series [2] (30 min at 70° C.), 0.56 U/ml. Moreover, the specific activity entry in series [5] is recorded as “at least 400 U/mg”.

Source of the values: patent publication US6037158A, “Alcohol dehydrogenase and its use for the enzymatic production of chiral hydroxy compounds” (priority 1996, dated 2000).
